Patent publication US20240301052A1 (LANOVA MEDICINES DEVELOPMENT, published 2024)
Numbering of substitutions follows the chain as printed. Like-named read-outs stand apart in the source and are kept apart here. Values belong to the binder of their own block, whether it stands above or below them.

Legend:
rat SLC34A2 [1] = biological target: T1, rat SLC34A2 (rat, UniProt Q9JJ09 1-695); assay: FACS, HEK293/Rat SLC34A2 cells
T1 construct: whole, on cells
T1 sequence (looked up): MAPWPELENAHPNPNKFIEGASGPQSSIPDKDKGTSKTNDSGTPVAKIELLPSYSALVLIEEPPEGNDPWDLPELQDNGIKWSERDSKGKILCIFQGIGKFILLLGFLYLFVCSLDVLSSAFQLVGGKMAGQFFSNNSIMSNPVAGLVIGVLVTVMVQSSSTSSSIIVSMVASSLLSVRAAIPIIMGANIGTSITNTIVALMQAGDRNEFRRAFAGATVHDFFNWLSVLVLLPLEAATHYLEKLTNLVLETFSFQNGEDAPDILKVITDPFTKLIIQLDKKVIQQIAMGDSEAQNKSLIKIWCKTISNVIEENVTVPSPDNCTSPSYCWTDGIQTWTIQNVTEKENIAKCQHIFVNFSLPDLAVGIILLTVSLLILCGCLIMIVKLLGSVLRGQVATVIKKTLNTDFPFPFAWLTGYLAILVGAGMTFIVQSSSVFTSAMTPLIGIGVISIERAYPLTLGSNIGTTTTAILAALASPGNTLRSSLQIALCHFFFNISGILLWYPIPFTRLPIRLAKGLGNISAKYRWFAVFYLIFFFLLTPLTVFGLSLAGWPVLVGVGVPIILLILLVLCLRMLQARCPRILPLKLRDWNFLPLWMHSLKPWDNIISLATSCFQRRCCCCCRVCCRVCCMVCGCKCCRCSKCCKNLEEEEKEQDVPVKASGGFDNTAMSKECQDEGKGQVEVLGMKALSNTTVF

mouse SLC34A2 [2] = biological target: T2, mouse SLC34A2 (mouse, UniProt Q9DBP0 1-697); assay: FACS, HEK293/Mouse SLC34A2 cells
T2 construct: whole, on cells
T2 sequence (looked up): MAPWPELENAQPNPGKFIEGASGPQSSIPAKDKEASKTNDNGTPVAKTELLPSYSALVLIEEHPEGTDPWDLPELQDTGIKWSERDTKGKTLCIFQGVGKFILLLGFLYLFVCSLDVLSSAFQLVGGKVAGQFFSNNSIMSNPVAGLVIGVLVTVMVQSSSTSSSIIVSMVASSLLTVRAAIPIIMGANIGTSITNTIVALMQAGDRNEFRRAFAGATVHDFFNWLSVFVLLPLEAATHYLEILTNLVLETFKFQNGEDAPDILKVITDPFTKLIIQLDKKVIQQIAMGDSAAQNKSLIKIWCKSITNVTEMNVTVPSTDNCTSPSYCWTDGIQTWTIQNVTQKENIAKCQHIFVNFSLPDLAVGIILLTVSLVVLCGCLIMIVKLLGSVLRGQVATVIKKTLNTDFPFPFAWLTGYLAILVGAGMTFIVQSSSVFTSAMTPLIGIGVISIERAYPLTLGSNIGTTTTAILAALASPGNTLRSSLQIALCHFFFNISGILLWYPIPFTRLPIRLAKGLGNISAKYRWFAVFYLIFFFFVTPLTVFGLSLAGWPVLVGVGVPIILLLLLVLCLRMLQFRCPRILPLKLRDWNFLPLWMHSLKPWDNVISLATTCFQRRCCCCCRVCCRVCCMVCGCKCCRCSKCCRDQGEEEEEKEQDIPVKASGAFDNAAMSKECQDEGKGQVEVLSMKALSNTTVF

[3] = biological target: Cynomolgus SLC34A2 (Cynomolgus); assay: FACS, cells expressing Cynomolgus SLC34A2
human SLC34A2 [4] = biological target: T3, human SLC34A2 (human, UniProt O95436 1-690); assay: FACS, MDAH2774 cells
T3 sequence (looked up): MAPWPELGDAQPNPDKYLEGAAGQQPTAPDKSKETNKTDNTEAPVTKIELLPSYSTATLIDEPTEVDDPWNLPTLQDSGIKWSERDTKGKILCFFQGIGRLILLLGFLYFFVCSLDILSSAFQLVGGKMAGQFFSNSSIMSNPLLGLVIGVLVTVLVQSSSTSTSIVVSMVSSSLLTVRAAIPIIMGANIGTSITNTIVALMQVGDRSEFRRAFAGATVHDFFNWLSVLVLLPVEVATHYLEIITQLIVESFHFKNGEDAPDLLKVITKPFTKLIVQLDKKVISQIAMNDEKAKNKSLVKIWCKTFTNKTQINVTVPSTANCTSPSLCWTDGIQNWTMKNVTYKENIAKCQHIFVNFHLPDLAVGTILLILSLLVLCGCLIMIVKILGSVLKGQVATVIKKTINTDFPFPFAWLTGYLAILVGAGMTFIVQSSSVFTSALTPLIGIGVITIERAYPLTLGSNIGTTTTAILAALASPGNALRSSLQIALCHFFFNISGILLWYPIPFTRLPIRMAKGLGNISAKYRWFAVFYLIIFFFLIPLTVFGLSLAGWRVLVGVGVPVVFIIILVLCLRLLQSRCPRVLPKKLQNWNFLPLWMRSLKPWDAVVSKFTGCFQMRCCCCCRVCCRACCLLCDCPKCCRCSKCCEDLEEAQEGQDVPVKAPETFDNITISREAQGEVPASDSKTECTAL

human SLC34A2 [5] = biological target: T3, human SLC34A2; assay: FACS, HEK293/human SLC34A2 cells
human SLC34A2 [6] = biological target: T3, human SLC34A2; assay: cell-based or functional assay
rat SLC34A2 [7] = biological target: T1, rat SLC34A2; assay: FACS, HEK293/Rat SLC34A2 cells; remark: listed apart in the source
human SLC34A2 [8] = biological target: T3, human SLC34A2; assay: FACS, OVCAR3 cells
Method in brief: (§1)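 Each cell line was labeled with humanized antibody (4° C., 60 min), then with a fluorescent conjugated secondary (4° C., 30 min), with double washes after each step; fluorescence was read by flow cytometry.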

human SLC34A2 [9] = biological target: T3, human SLC34A2; assay: FACS, HEK293/human SLC34A2 cells
Method in brief: as §1

human SLC34A2 [10] = biological target: T3, human SLC34A2; assay: FACS, RMG-1 cells
Method in brief: as §1

mouse SLC34A2 [11] = biological target: T2, mouse SLC34A2; assay: FACS, HEK293/Mouse SLC34A2 cells; remark: listed apart in the source
human SLC34A2 [12] = biological target: T3, human SLC34A2; assay: FACS, OVCAR3 cells; remark: listed apart in the source
Protocol: The binding of these humanized antibodies to OVCAR3 cells was evaluated as described above, and the results are shown in FIG. 12A-D and Tables 16A-D.

Rhesus SLC34A2 = biological target: T4, Rhesus SLC34A2 (Rhesus, UniProt F7HDA3 1-690); assay: FACS, HEK293/Rhesus SLC34A2 cells
T4 construct: whole, on cells
T4 sequence: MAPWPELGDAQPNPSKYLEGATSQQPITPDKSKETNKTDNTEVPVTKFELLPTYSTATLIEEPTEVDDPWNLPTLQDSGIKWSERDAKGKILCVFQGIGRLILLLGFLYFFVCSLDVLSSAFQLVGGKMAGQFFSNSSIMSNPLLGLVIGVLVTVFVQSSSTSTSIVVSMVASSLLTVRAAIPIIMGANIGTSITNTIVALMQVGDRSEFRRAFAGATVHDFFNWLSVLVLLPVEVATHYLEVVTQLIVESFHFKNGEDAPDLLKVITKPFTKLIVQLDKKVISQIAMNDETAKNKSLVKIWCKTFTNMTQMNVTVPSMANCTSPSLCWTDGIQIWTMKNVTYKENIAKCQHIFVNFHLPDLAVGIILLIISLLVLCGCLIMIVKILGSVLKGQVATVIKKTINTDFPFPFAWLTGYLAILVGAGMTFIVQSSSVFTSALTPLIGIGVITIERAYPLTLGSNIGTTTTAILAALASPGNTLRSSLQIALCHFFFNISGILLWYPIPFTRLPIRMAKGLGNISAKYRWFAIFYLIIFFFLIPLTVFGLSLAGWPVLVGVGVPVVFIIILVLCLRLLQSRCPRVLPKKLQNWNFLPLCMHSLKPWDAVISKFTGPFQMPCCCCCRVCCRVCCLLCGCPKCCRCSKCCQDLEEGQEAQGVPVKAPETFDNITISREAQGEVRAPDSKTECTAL

human SLC34A2 [13] = biological target: T3, human SLC34A2; assay: cell-based or functional assay; remark: listed apart in the source

- EC50 (rat SLC34A2 [1]): 715 nM
- EC50 (mouse SLC34A2 [2]): 412 nM
- EC50 [3]: 1080 nM
- EC50 (human SLC34A2 [4]): 8.74 nM
- EC50 (human SLC34A2 [5]): 8.25 nM
- ADCC reporter EC50 (human SLC34A2 [6]): 1.31 nM
- ADCC reporter Top (MFI) (human SLC34A2 [6]): 15700 MFI
- ADCC-HEK293 (human SLC34A2 [6]): 2.02 nM
- ADCC-OVCAR3 (human SLC34A2 [6]): 2.97 nM
B1: RG-7599 (antibody, INN chains, looked up, V domains shown)
VH: EVQLVESGGGLVQPGGSLRLSCAASGFSFSDFAMSWVRQAPGKGLEWVATIGRVAFHTYYPDSMKGRFTISRDNSKNTLYLQMNSLRAEDTAVYYCARHRGFDVGHFDFWGQGTLVTVSS
VL: DIQMTQSPSSLSASVGDRVTITCRSSETLVHSSGNTYLEWYQQKPGKAPKLLIYRVSNRFSGVPSRFSGSGSGTDFTLTISSLQPEDFATYYCFQGSFNPLTFGQGTKVEIK
modifications: vedotin (MMAE) payload
- Cytotoxic Effect - MDAH-2774 (human SLC34A2 [6]): 6.83 nM
- Cytotoxic Effect - OVCAR3 (human SLC34A2 [6]): 0.325 nM

- binding result (rat SLC34A2 [7]): binds
- EC50 (human SLC34A2 [8]): 8.61 nM
- EC50 (human SLC34A2 [9]): 4.42 nM
- Top (human SLC34A2 [9]): 31500 MFI
- EC50 (human SLC34A2 [10]): 11.1 nM
- Top (human SLC34A2 [10]): 10900 MFI
- binding result (mouse SLC34A2 [11]): binds
- EC50 (human SLC34A2 [12]): 8.61 nM
- Top (MFI) (human SLC34A2 [12]): 30000 MFI
- EC50 (Rhesus SLC34A2): 2.5 nM
- Top (MFI) (Rhesus SLC34A2): 12200 MFI
B2: 62G10E4G8.p3.z8 hIgG1 (antibody, V domains shown)
VH: QVQLVQSGAEVKKPGASVKVSCKASGYTFPSYITHWVRQAPGQGLEWIGAIYPGNADTSYIQKFKGRVTMTADKSTSTVYMELSSLRSEDTAVYYCARGTYGTSAWFTYWGQGTLVTVSS
VL: EIVLTQSPATLSASPGERATLSCRARQNIGNNLYWYQQKPGQSPRLLIKYASQSISGIPSRFSGSGSGTDFTLTISSVQSEDFAVYFCQQSFSWPLTFGAGTKLEIK
notes: humanized hIgG1

- ADCC reporter EC50 (human SLC34A2 [13]): 3.78 nM
- ADCC reporter Top (MFI) (human SLC34A2 [13]): 116000 MFI
- binding result (rat SLC34A2 [7]): binds
- EC50 (human SLC34A2 [8]): 4.32 nM
- EC50 (human SLC34A2 [9]): 5.07 nM
- Top (human SLC34A2 [9]): 31900 MFI
- EC50 (human SLC34A2 [10]): 11.4 nM
- Top (human SLC34A2 [10]): 11300 MFI
- binding result (mouse SLC34A2 [11]): binds
- EC50 (human SLC34A2 [12]): 4.32 nM
- Top (MFI) (human SLC34A2 [12]): 28200 MFI
- EC50 (Rhesus SLC34A2): 3.4 nM
- Top (MFI) (Rhesus SLC34A2): 14700 MFI
B3: 62G10E4G8.p3.z11 hIgG1 (antibody, V domains shown)
VH: B2 VH with R38K, M70L, V79A
VL: B2 VL with A13V, V78L, A100Q
notes: humanized hIgG1
